Measured values from patent publication US20090202574A1, “METHODS OF IMMUNE OR HAEMATOLOGICAL ENHANCEMENT, INHIBITING TUMOUR FORMATION OR GROWTH, AND TREATING OR PREVENTING CANCER” (priority 2004, published 2009).

Tests used:
[1] = test system: Th1 (IL-18, TNF-α, IFN-γ) and Th2 (IL-4, IL-5, IL-6, IL-10) cytokines; assay: ELISA of Th1 and Th2 cytokines in intestine and tumour; format: in vivo, mice; conditions: Example 14
Procedure: (§1) Cytokine levels in the supernatants of homogenates of the small intestine were determined using a “sandwich” ELISA kit (Endogen, Woburn, Mass.). They were detected within standard curve ranges of 15-375 pg/ml for IL-4, 0-2450 pg/ml for IL-5, 15-1000 pg/ml for TNF-α, 0-3000 pg/ml for IFN-γ, 37-3000 pg/ml for IL-10, 31.3-2000 pg/ml for IL-12, and 31.3-2000 pg/ml for IL-18, respectively. Quantification of nitrite, indicative of NO production, was carried out by the Griess reaction (Sigma, USA). The results are expressed as the mean nitrite concentration (μM)±SD.
(§2) The ability of oral iron-saturated lactoferrin to affect the expression of a panel of Th1 and Th2 cytokines was examined in non-tumour-bearing mice, and in tumour-bearing mice fed iron-saturated bovine lactoferrin or the control diet, and treated with either paclitaxel or doxorubicin or a combination of the two drugs.

[2] = test system: Lewis lung carcinoma (LLC) tumours; assay: Lewis lung carcinoma tumour growth in mice; format: in vivo, C57BL/6 mice; conditions: Example 18; 28 g Fe-Lf per 2.4 Kg diet; epirubucin 15 mg/Kg i.p.
Procedure: (§3) Tumors were established by s.c. injection of 2×10^5 EL-4 cells into the left flank of mice, and growth determined by measuring two perpendicular diameters. Animals were euthanased when tumors reached more than 1.0 cm in diameter, in accord with Animal Ethics Approval (University of Auckland). All experiments included 5 mice per treatment group, unless otherwise indicated. Paclitaxel (30 mg dissolved in 5 ml of Cremophor® EL and dehydrated alcohol) was diluted in 0.9% NaCl and administered i.p. at 30 mg/Kg. Doxorubucin in water was injected i.p. at 15 mg/Kg. The drugs were injected in a volume of 0.01 to 0.02 ml/g body weight. The expression vector encoding mouse B7-1 was prepared by cesium chloride gradient centrifugation, and diluted to 5 μg/μl in a solution of 5% glucose in 0.01% Triton X-100. It was mixed in a ratio of 1:1 (wt:wt) with DOTAP cationic liposomes (Boehringer Mannheim, Germany). Tumors were injected with 180 μl of DNA (180 μg)/liposome complexes, as described previously (Kanwar, et al., 1999 and Kanwar, et al., 2000).
(§4) Mice were fed the control diet, and the same diet supplemented with 28 g of 100% Fe-saturated lactoferrin per 2.4 Kg of diet. EL-4 (2×10^5), Lewis lung carcinoma (LLC, 2×10^5), and B16 melanoma (2×10^5) tumour cells were injected into the left flanks of C57BL/6 mice following two weeks on the Lf diets, or control diet. […]

[3] = Blood haematological profile (red and white blood cell counts); format: in vivo, mice; conditions: blood from the heart at autopsy; mean
Procedure: The red and white blood cell counts of mice sacrificed in the preceding examples were recorded. Oral feeding of bovine iron-saturated lactoferrin alone or in combination with administration of paclitaxel or doxorubicin or both increased the mean values of red and white blood cells compared to control mice and compared to mice administered paclitaxel and doxorubicin but not fed lactoferrin, as shown in Table 1.

Nitrous oxide = assay: Nitrite (Griess reaction) at tumour site and in intestine; format: in vivo, mice; conditions: Example 14, P<0.001
Procedure: as §1, §2

IL-18 = IL-18 production by cultured intestinal loops; format: cell-based, mice; conditions: Example 20; 400 and 800 μg/ml; 48 h; vs bovine serum albumin control protein
Procedure: as §1
100% Fe-saturated Lf, natural Lf (less than 20% iron saturated), and bovine serum albumin control were added at 400 and 800 μg/ml to intestinal loops (2.5 cm segments of the small intestine) prepared from healthy 6 to 7 week-old female mice, which were kept in culture for 48 h. IL-18 levels released by the intestinal loops, and present in the supernatants of homogenates of the small intestine were determined using a “sandwich” ELISA kit as described above.

B16 target cells = assay: Anti-tumour cytolytic activity of splenocytes against B16 target cells; format: in vivo, C57BL/6 mice; conditions: Example 18, FIG. 14D (fluorouracil experiment), vs controls
Procedure: (§5) Splenocytes were tested for their cytolytic activity against tumour target cells. […] Referring to FIGS. 14B, D, and F the percent cytotoxicity is plotted against various effector-to-target cell ratios (E:T ratios); each point represents the mean percent cytotoxicity obtained from 5 mice; and the bar represents 95% confidence intervals.

EL-4 tumours = assay: EL-4 tumour growth in mice (s.c. flank tumour model); format: in vivo, C57BL/6 mice; conditions: for inhibition of tumour growth: Example 1, oral diet, day 42
LLC target cells = assay: Anti-tumour cytolytic activity of splenocytes against LLC target cells; format: in vivo, C57BL/6 mice; conditions: Example 18, FIG. 14B (epirubucin experiment), vs controls
Procedure: as §5

B16 melanoma tumours = assay: B16 melanoma tumour growth in mice; format: in vivo, C57BL/6 mice; conditions: Example 18; 28 g Fe-Lf per 2.4 Kg diet; fluorouracil 150 mg/Kg i.p.
Procedure: as §3, §4

EL-4 target cells = assay: Anti-tumour CTL and/or NK cell cytolytic activity of splenocytes against EL-4 target cells; conditions: for increase in anti-tumour CTL and/or NK cell activity: Example 2, day 98; for increase in anti-tumour cytolytic activity: Example 18, EL-4, vs controls
Procedure: Splenocytes were harvested 28 days following tumour cell injection, as specified. They were incubated at 37° C. with EL-4 target cells in graded E:T ratios in 96-well round-bottom plates. After a 4-hour incubation, 50 μl of supernatant was collected, and lysis was measured using the Cyto Tox 96 Assay Kit (Promega, Madison, Wis., USA). Background controls for non-specific target and effector cell lysis were included. After background subtraction, percentage of cell lysis was calculated using the formula: 100× (experimental-spontaneous effector-spontaneous target/maximum target-spontaneous target).

B1: iron-saturated bovine lactoferrin: Iron-saturated bovine lactoferrin extract (100% saturated) prepared from natural bLf (protein)
chain: APRKNVRWCTISQPEWFKCRRWQWRMKKLGAPSITCVRRAFALECIRAIAEKKADAVTLDGGMVFEAGRDPYKLRPVAAEIYGTKESPQTHYYAVAVVKKGSNFQLDQLQGRKSCHTGLGRSAGWIIPMGILRPYLSWTESLEPLQGAVAKFFSASCVPCIDRQAYPNLCQLCKGEGENQCACSSREPYFGYSGAFKCLQDGAGDVAFVKETTVFENLPEKADRDQYELLCLNNSRAPVDAFKECHLAQVPSHAVVARSVDGKEDLIWKLLSKAQEKFGKNKSRSFQLFGSPPGQRDLLFKDSALGFLRIPSKVDSALYLGSRYLTTLKNLRETAEEVKARYTRVVWCAVGPEEQKKCQQWSQQSGQNVTCATASTTDDCIVLVLKGEADALNLDGGYIYTAGKCGLVPVLAENRKSSKHSSLDCVLRPTEGYLAVAVVKKANEGLTWNSLKDKKSCHTAVDRTAGWNIPMGLIVNQTGSCAFDEFFSQSCAPGADPKSRLCALCAGDDQGLDKCVPNSKEKYYGYTGAFRCLAEDVGDVAFVKNDTVWENTNGESTADWAKNLNREDFRLLCLDGTRKPVTEAQSCHLAVAPNHAVVSRSDRAAHVKQVLLHQQALFGKNGKNCPDKFCLFKSETKNLLFNDNTECLAKLGGRPTYEEYLGTEYVTAIANLKKCSTSPLLEACAFLTR
modifications: iron-saturated; Bovine Lactoferrin
notes: Iron-saturated bovine lactoferrin extract (100% saturated) prepared from natural bLf
**Q.** What does the source list for B1?
**A.** cytokines within the tumor site [1]: increased the presence of all cytokines; levels of IL-18 and IL-10 in tumour-bearing mice relative to non-tumour-bearing mice ([1]; oral feeding): less than half; LLC tumour response [2]: slowed the growth of all three tumour types, but failed to eradicate the tumours altogether; RBCs [3]: 8.2 ± 2.5 ×10^6/mm^3; WBCs [3]: 3.5 ± 1.2 ×10^3/mm^3; increase in nitrous oxide (Nitrous oxide): 3 to 4 fold; increase in the levels of IL-18 in the intestine (IL-18): 10 fold; increase in anti-tumour cytolytic activity (B16 target cells): 45%; inhibition of tumour growth (EL-4 tumours; 2 of 5 mice, vs control diet, P>0.05): 31%; inhibition of tumour growth (EL-4 tumours; the latter 3 mice (tumours first prevented for one week), P<0.05): 51%; mice remaining completely tumour-free (EL-4 tumours; Example 2, of 24 mice, monitored 11 weeks): Four; mice that resisted the tumour challenge for 6 weeks (EL-4 tumours; Example 2, of 24 mice, tumours then grew at reduced rate): Five; time for tumours to reach 0.4 cm in diameter (EL-4 tumours; Example 13, diet started at ~0.2 cm, control mice one week): two; mice of ten that completely rejected the tumour challenge (EL-4 tumours; Example 15, 20 g of Lf per 2.4 Kg diet): one; mice of ten that completely rejected the tumour challenge (EL-4 tumours; Example 16, 1 g Fe-Lf per 2.4 Kg diet): one; tumour growth rate vs control diet (EL-4 tumours; Example 16, 5 and 25 g per 2.4 Kg diet): grew significantly (p<0.05 at days 35-49) more slowly; mice of ten that completely rejected the tumour challenge (EL-4 tumours; Example 16, 5 g Fe-Lf per 2.4 Kg diet): two; mice of ten that completely rejected the tumour challenge (EL-4 tumours; Example 16, 25 g Fe-Lf per 2.4 Kg diet): three; tumour growth rate vs control diet (EL-4 tumours; Example 16, lowest and highest doses (1 and 100 g per 2.4 Kg diet)): did not differ greatly; EL-4 tumour response (EL-4 tumours; Example 18, 28 g Fe-Lf per 2.4 Kg diet, drugs i.p. at ~0.4 to 0.5 cm): slowed the growth of all three tumour types, but failed to eradicate the tumours altogether; increase in anti-tumour cytolytic activity (LLC target cells): 150%; B16 tumour response (B16 melanoma tumours): slowed the growth of all three tumour types, but failed to eradicate the tumours altogether; anti-tumour CTL and/or NK cell activity of splenocytes (EL-4 target cells; Example 1, splenocytes at day 42, vs control diet): significantly (P<0.05) increased; increase in anti-tumour CTL and/or NK cell activity (EL-4 target cells; mice that remained tumour-free, vs control diet, P<0.001): 6 fold; increase in anti-tumour CTL and/or NK cell activity (EL-4 target cells; mice who developed tumours and were switched to control diet, vs control diet, P<0.001): 30 fold; increase in anti-tumour cytolytic activity of splenocytes (EL-4 target cells; Example 15, the one mouse that resisted the tumour challenge, vs control, P<0.001): 6 fold; increase in anti-tumour cytolytic activities of splenocytes (EL-4 target cells; Example 16, 6 of 30 mice that rejected the tumour on 1, 5 and 25 g diets, p<0.001): 3 to 4.6 fold; increase in anti-tumour cytolytic activity (EL-4 target cells; FIG. 14B (epirubucin experiment)): 130%; increase in anti-tumour cytolytic activity (EL-4 target cells; FIG. 14D (fluorouracil experiment)): 87%; increase in anti-tumour cytolytic activity (EL-4 target cells; FIG. 14F (cyclophosphamide/methotrexate experiment)): 100%
